Blank lines part the entries; values can stand above or below the molecule they belong to.
Assays:
[1] = test system: primary TMZ-resistant glioblastoma stem cells (GSC-R); assay: MTT viability of chemo-resistant cells; details: Homo sapiens, Glioblastoma stem cell, 96 h, read-out: percent survival / viability
Procedure: In detail, GSCs and U87 parental cell line, which are sensitive to TMZ, were first maintained in low doses of TMZ (25 μM) and then successively exposed for two months to incremental doses of 25 μM of TMZ each time (up to 500 μM). After the killing of a majority of the cells, the surviving cells were maintained until a normal rate of growth were obtained. […] Cell viability was assessed by 3-(4,5-Dimethylthiazol-2-yl)-2,5-Diphenyl-tetrazoliumBromide (MTT) assay, as a function of redox potential (FIG. 24). Cells (5×10^3/well) were seeded and cultured in 96-well plate for 24 h in Basal Medium (BM). Then, culture media were replaced with fresh media containing the specific treatments, or in BM as a control condition (CTR).
Test was performed in triplicate after 96 h of treatment, by replacing culture media with 100 μL of fresh media added with 10 μL of MTT 5 mg/ml in D-PBS. After 4 h of incubation, media were removed and cells were lysed with 100 μL of 2-propanol/formic acid (95:5, by vol) for 10 min. Then, absorbance was read at 570 nm in microplate reader.

EphB4 = biological target: T1, EphB4 (Homo sapiens, UniProt P54760); details: Epo for EphB4; cited from earlier work
T1 sequence (P54760 16-987): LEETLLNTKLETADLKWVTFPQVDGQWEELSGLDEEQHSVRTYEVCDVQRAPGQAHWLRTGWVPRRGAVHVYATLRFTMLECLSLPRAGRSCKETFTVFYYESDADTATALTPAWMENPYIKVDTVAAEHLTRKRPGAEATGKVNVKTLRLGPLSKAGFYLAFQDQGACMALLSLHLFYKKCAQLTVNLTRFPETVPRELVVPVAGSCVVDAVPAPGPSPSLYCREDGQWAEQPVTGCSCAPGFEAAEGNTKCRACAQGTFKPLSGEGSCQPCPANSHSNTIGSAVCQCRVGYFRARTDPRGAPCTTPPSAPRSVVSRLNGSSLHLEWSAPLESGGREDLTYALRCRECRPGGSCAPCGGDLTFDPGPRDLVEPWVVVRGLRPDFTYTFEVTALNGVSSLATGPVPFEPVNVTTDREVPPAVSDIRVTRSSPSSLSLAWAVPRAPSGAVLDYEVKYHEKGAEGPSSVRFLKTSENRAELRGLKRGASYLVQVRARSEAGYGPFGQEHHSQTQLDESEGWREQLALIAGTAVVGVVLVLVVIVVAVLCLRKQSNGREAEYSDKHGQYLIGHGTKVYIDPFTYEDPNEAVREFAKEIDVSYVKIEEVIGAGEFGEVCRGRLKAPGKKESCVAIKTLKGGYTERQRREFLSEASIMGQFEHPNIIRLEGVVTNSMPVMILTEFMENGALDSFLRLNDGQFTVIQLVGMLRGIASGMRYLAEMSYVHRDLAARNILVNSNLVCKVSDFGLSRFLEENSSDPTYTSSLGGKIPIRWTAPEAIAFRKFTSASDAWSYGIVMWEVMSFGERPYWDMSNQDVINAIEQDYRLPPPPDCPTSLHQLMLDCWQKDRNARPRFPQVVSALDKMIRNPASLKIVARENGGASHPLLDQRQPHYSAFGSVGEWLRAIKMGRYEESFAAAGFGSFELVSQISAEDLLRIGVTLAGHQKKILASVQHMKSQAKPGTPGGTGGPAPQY

murine EPO [2] = biological target: T2, murine EPO (murine, UniProt P07321 27-192, limits assumed); assay: SPR (ProteOn XPR36), anti-EPO (C4) immobilized by amine coupling, EPO as analyte; murine EPO; fitted value
T2 construct: also called mEPO; m-EPO
T2 sequence (looked up): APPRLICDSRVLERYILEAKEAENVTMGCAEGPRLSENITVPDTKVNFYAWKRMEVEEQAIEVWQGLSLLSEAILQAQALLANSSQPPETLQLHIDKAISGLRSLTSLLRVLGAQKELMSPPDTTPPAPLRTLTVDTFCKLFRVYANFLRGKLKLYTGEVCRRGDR

murine EPO [3] = biological target: T2, murine EPO; assay: SPR (ProteOn XPR36), anti-EPO (C4) immobilized by amine coupling, EPO as analyte; murine EPO

Molecule: Cn1nnc2c(C(N)=O)ncn2c1=O [TMZ, Temozolomide]
viability at 100 µM [1]: ~93%

Molecule: Epo: 30.4 kDa glycoprotein, main erythropoietic hormone
Kd (EphB4): 880 nM

Kd (murine EPO [2]): 1010 nM
koff (murine EPO [3]): 0.000669 s⁻¹
kon (murine EPO [3]): 663 M⁻¹ s⁻¹
B1: anti-EPO (C4) monoclonal antibody (antibody, V domains shown)
VH: EVKLQESGGGLVQPGGSLKLSCAASGFTFSTYTMSWVRQTPEKRLEWVAYISNGGDRTYYPDTVKGRFTISRDDAKNTLFLQMSSLKSEDTAMYYCARHNITTVPFTMDYWGQGTSVTVSS
VL: DIVLTQSPASLAVSLGQRATISCRASESVDYYGTGLMQWYQQRPGQPPKLLIYGASNVGSGVPARFSGSGSGTDFSLNIHPVEGDDIAMYFCQQTRKVPSTFGGGTKLEIK
notes: also called C4 antibody; anti-EPO (C4) mAB

From US20240294624A1, “ANTI-ERYTHROPOIETIN ANTIBODY” (ANDREMACON S.R.L., priority 2021, published 2024)
